This note sets out measurements from publication PMC10810746.

This assay deals with RbcL (large subunit of form I ribulose 1,5-bisphosphate carboxylase oxygenase) (Synechococcus sp. PCC 7335). In words: cryo-EM structure; single-particle cryo-EM of form I Rubisco found in the same fraction; 2.35 Å, D4 symmetry.

“RbcL (large subunit of form I ribulose 1,5-bisphosphate carboxylase oxygenase) (enzyme)” registered a stoichiometry N of 8.
